Laboratory results reported in US12044680.
Values joined by “and” are separate entries in the source; they are usually repeats but may differ in a detail not shown here. Equal values may be shown once. Read-outs that look alike come from different tables or passages of the source.

Assays:
[1] = target: HLA-A*02:01 tetramer (human); assay: peptide exchange on HLA-A*02:01 tetramer, entering peptide 20 µM, 4 h; competitor: exiting peptide ILKEKK(DNP)VHGV; capture on anti HLA-ABC beads, anti-DNP FITC, flow cytometry
[2] = target: HLA-A*24:02 tetramer (human)
[3] = target: HLA-A*02:01 tetramer (human)
[4] = target: HLA-A*24:02 tetramer (human); assay: peptide exchange on HLA-A*24:02 tetramer, competing peptide 20 µM, 4 h; competitor: exiting peptide TFQRK(DNP)PAAF; capture on anti HLA-ABC beads, anti-DNP FITC, flow cytometry
[5] = target: T1, H-2 Kb tetramer (murine), P01901
T1 chain: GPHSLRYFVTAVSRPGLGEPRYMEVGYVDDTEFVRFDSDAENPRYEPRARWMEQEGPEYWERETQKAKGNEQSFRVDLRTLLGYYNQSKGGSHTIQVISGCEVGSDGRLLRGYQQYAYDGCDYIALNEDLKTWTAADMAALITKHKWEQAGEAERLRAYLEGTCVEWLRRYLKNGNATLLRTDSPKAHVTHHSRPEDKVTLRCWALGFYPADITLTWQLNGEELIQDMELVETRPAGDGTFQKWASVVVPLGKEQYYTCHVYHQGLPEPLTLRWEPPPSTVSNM

[6] = target: T1, H-2 Kb tetramer (murine), P01901; assay: peptide exchange on H-2 Kb BV421 tetramer, reference peptide 20 µM, glycyl-methionine, 4 h; competitor: exiting peptide TFQRK(DNP)PAAF; bead sandwich immunoassay, flow cytometry
[7] = target: T1, H-2 Kb tetramer (murine), P01901; assay: peptide exchange on H-2 Kb APC tetramer, reference peptide 20 µM, glycyl-methionine, 4 h; competitor: exiting peptide TFQRK(DNP)PAAF; bead sandwich immunoassay, flow cytometry
[8] = target: T1, H-2 Kb tetramer (murine), P01901; assay: peptide exchange on H-2 Kb APC tetramer, reference peptide 2 µM, glycyl-methionine, 4 h; competitor: exiting peptide TFQRK(DNP)PAAF; bead sandwich immunoassay, flow cytometry
[9] = target: T1, H-2 Kb tetramer (murine), P01901; assay: peptide exchange on H-2 Kb PE tetramer, reference peptide 20 µM, glycyl-methionine, 4 h; bead sandwich immunoassay, flow cytometry
[10] = target: T1, H-2 Kb tetramer (murine), P01901; assay: peptide exchange on H-2 Kb BV421 tetramer, reference peptide 2 µM, glycyl-methionine, 4 h; competitor: exiting peptide TFQRK(DNP)PAAF; bead sandwich immunoassay, flow cytometry
[11] = target: T1, H-2 Kb tetramer (murine), P01901; assay: peptide exchange on H-2 Kb PE tetramer, reference peptide 2 µM, glycyl-methionine, 4 h; competitor: exiting peptide TFQRK(DNP)PAAF; bead sandwich immunoassay, flow cytometry
[12] = remark: other sources report otherwise

With GLAVVTHGL (modifications not checked) [… (SEQ ID NO: 24)] the % peptide exchange [1] was 91%.

WMHHNMDLI (modifications not checked) [… (SEQ ID NO: 37)] was tested, and the % peptide exchange [1] was 89.2%.

For RVRAYTYSK (modifications not checked) [… (SEQ ID NO: 30)], the % peptide exchange [2] was 10.3%.

For FLYDDNQRV (modifications not checked) [… (SEQ ID NO: 33)], the % peptide exchange [1] was 91.2%.

YLLEFTPPV (modifications not checked) [HLA-A*02:01 Reference peptide, … (SEQ ID NO: 5)] gave a % peptide exchange [1] of 91.9%.

With EYILSLEEL (modifications not checked) [… (SEQ ID NO: 45)] the % peptide exchange [1] was 24.2%.

For SLPPPGTRV (modifications not checked) [… (SEQ ID NO: 38)], the % peptide exchange [1, 12] was 86.6%.

In the case of GLADQLIHL (modifications not checked) [… (SEQ ID NO: 23)], the % peptide exchange [3] is reported as 91.4%.

In the case of FLSELTQQL (modifications not checked) [… (SEQ ID NO: 21)], the % peptide exchange [4] is reported as 23.6%.

AVLDGLLSL (modifications not checked) [… (SEQ ID NO: 34)] showed a % peptide exchange [1] of 90.7%.

CINGVCWTV (modifications not checked) [… (SEQ ID NO: 36)] gave a % peptide exchange [3] of 85.3%.

With IMQIMPYGC (modifications not checked) [… (SEQ ID NO: 41)] the % peptide exchange [1] was 59.9%.

GYSLKLSKL (modifications not checked) [… (SEQ ID NO: 25)] showed a % peptide exchange [2] of 37.9%.

In the case of LNMADKKET (modifications not checked) [… (SEQ ID NO: 28)], the % peptide exchange [2] is reported as 10.3%.

In the case of CSLWNGPHL (modifications not checked) [… (SEQ ID NO: 44)], the % peptide exchange [1] is reported as 55.2%.

With ALLAVGATK (modifications not checked) [… (SEQ ID NO: 43)] the % peptide exchange [1] was 25.7%.

Binder WMHKVPASL (modifications not checked) [… (SEQ ID NO: 35)] has a % peptide exchange [1] of 87.9%.

In the case of ATVQGQNLK (modifications not checked) [… (SEQ ID NO: 48)], the % peptide exchange [1] is reported as 27.9%.

Binder SYVPSAEQI (modifications not checked) [… (SEQ ID NO: 47)] has a % peptide exchange [1] of 25%.

For ALALEVGEL (modifications not checked) [… (SEQ ID NO: 46)], the % peptide exchange [1] was 85.1%.

Binder AMAPRTLLL (modifications not checked) [… (SEQ ID NO: 18)] has a % peptide exchange [4] of 81.6%.

For RIKDFLRNL (modifications not checked) [… (SEQ ID NO: 42)], the % peptide exchange [1] was 34%.

In the case of LTLGEFLKL (modifications not checked) [… (SEQ ID NO: 39)], the % peptide exchange [1] is reported as 43.6%.

With TFQRKPAAF (modifications not checked) [TFQRK(DNP)PAAF (SEQ ID NO: 16)] the % peptide exchange (loss of the exiting peptide without entering peptide) [5] was 16% and 13.3% and 30.4%.

In the case of IRLRPGGKK (modifications not checked) [… (SEQ ID NO: 49)], the % peptide exchange [3] is reported as 25%.

In the case of IYSTVASSL (modifications not checked) [… (SEQ ID NO: 27)], the % peptide exchange [2] is reported as 101%.

For SIYRYYGL (modifications not checked) [reference entering peptide (SIYRYYGL (SEQ ID NO: 59))], the % peptide exchange [6] was 97.3%, the % peptide exchange [7] was 99.1% and the % peptide exchange [8] was 97.1%. The % peptide exchange [9] was 100%, the % peptide exchange [10] was 90.6% and the % peptide exchange [11] was 92.7%.

IMQLMPFGC (modifications not checked) [… (SEQ ID NO: 40)] gave a % peptide exchange [1, 12] of 40.9%.

In the case of RYMRWTYRF (modifications not checked) [… (SEQ ID NO: 31)], the % peptide exchange [2] is reported as 101%.
